In patent US20250361314A1 (SHANGHAI HUAOTA BIOPHARMACEUTICAL, published 2025):

Assays:
[1] = target: T1, Mouse CD73 antigen (mouse, UniProt Q61503 29-549, limits assumed); test: SPR (Biacore 8K), antibody captured on anti-human capture CM5 chip, antigen as analyte
T1 construct: Antigen used as analyte in SPR
T1 sequence (looked up): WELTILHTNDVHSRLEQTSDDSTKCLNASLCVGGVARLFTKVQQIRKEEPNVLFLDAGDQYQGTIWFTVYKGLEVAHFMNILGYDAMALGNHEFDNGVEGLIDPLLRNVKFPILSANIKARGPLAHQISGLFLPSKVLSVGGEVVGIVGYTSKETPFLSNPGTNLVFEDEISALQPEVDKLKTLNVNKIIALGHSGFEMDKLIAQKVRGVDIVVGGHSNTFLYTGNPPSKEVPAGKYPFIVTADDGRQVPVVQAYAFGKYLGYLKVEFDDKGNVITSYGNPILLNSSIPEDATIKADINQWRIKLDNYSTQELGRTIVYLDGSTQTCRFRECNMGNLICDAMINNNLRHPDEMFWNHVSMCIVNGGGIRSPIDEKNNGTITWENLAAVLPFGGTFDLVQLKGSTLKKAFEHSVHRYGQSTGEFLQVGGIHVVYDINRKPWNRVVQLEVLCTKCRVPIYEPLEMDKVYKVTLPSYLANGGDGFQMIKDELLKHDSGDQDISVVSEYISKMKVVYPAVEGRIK
Procedure: (§1) The experimental method is as follows:
(§2) An Anti-Human Capture-CM5 chip (GE, #BR-1005-30) was prepared using coupling methods of a Human Antibody Capture Kit (GE, #BR-1008-39) and an amino coupling kit (GE, BR-1000-50). The chip was equilibrated at room temperature for about 20-30 min and loaded into a Biacore 8K instrument. The antigen and antibody were diluted to an experimental working concentration using an equilibration buffer. The antigen was diluted with an equilibrium buffer to 50 nM, and then diluted three-fold for seven concentration gradients, and two zero concentrations (i.e., the equilibrium buffer) and one repeat concentration (typically the lowest concentration repeat) were set. Experimental analysis was performed on 10 antigen concentrations (2 zero concentrations, 7 gradient concentrations, and 1 repeated concentration) in a cyclic manner according to an order of antibody, antigen, and regeneration. The antigen injection flow rate was 30 μL/min, the binding time was 120 s, and the dissociation time was 600 s. Following the analysis, the data was analyzed using the corresponding analysis program to confirm that there was no obvious reference binding. Using Kinetics and a 1:1 binding model, the data was fit to obtain the kinetic related parameters Ka, Kd, and KD values of the bispecific antibodies.

[2] = target: T2, Mouse CD39 antigen (mouse, UniProt P55772 38-478); test: as above
T2 construct: Antigen used as analyte in SPR
T2 sequence (looked up): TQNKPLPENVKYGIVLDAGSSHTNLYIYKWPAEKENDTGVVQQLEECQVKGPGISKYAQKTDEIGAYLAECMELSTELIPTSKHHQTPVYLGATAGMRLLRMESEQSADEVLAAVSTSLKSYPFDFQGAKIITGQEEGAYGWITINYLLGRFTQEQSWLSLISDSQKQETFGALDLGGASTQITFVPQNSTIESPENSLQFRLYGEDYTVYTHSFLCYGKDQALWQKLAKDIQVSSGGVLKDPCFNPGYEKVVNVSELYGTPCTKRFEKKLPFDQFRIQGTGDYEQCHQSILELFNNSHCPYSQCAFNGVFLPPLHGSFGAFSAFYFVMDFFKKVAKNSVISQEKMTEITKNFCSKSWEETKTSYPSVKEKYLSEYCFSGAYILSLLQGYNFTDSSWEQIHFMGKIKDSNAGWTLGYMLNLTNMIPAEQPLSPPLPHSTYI
Procedure: as §1, §2

B1: CD39/CD73 bispecific antibody 700035 (CD39-VHH-CD73-IgG) (bispecific antibody)
heavy: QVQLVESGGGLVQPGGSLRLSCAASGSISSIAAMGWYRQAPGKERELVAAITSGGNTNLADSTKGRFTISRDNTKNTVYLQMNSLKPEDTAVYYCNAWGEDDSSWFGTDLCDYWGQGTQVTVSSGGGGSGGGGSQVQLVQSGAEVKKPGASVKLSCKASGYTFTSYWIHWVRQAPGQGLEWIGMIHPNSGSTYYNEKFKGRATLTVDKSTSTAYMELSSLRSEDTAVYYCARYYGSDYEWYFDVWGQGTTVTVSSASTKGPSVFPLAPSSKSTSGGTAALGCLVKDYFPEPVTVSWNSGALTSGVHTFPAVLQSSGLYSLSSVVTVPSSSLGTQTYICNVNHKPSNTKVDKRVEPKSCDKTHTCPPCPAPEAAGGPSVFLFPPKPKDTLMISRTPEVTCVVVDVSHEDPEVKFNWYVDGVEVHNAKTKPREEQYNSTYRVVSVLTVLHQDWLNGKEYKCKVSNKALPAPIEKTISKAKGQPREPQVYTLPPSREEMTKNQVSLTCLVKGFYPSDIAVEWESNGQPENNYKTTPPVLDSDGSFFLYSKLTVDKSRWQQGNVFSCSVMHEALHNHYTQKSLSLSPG
light: DIQMTQSPSSMSASVGDRVTITCKASQNVRTAVVWYQQKPGKAPKALIYLASNRHTGVPDRFSGSGSGTDFTLTISSLQPEDFATYFCLQHWNYPYTFGQGTKLEIKRTVAAPSVFIFPPSDEQLKSGTASVVCLLNNFYPREAKVQWKVDNALQSGNSQESVTEQDSKDSTYSLSSTLTLSKADYEKHKVYACEVTHQGLSSPVTKSFNRGEC
binding result [1]: no binding (tested: 50 nM (highest antigen concentration))
binding result [2]: no binding (tested: 50 nM (highest antigen concentration))
